The record followed here is article PMC3791423.

Assay [1] addresses PspA_(1–186) (E. coli) (UniProt P0AFM6).
The target is the same in assay [2]. The experiment in a line: SEC; linked PspF_(1–275) dimers injected at 70 μM, without and with PspA_(1–186), no nucleotide, 4 °C, Yarra Sec-S3000 column; apparent oligomers. A general note: Size exclusion chromatography separates by hydrodynamic size, large species first.
The target in assay [3] is single-chain linked PspF_(1–275) WT/WT dimer (E. coli) (UniProt P37344). The description is as above.
The target in assay [4] is single-chain linked PspF_(1–275) WT/W56A dimer (E. coli) (UniProt P37344). Described as above.

With “single-chain linked PspF_(1–275) WT/WT dimer (from UniProt P37344 1-275; P37344 1-275)”, the reduction of RPO formation (supercoiled nifH promoter) in the presence of PspA (1–186) with PspA_(1–186) (E. coli) [1] was 100%. Besides, the stoichiometry N (PspA (1–186) subunits per PspF hexamer) in the assay with PspA_(1–186) (E. coli) [2] came out at 6. The stoichiometry N (PspF (1–275) subunits) in assay [3] stood at 6.

In the case of “single-chain linked PspF_(1–275) WT/W56A dimer (from UniProt P37344 1-275; P37344 1-275)”, the reduction of RPO formation (supercoiled nifH promoter) in the presence of PspA (1–186) with PspA_(1–186) (E. coli) [1] stood at 10%. For the same substance, the stoichiometry N (PspF (1–275) subunits) in assay [4] worked out at 6.
